From patent US20020143164

Test system: GST-Ras [GST: P08515]
Sequence (P08515 whole entry, looked up): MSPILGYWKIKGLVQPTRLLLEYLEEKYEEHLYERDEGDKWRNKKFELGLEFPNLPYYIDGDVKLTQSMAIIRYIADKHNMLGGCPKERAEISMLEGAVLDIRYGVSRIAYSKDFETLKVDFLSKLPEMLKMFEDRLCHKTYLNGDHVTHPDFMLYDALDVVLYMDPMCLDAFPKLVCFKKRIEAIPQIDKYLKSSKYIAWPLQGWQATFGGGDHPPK

Flag-tagged full-length RasGRF2
fold Ras activation in vitro (bound 32P-GTP, against Ras without GRFs set to 1): the 4.5 fold activation conferred by GRF2, used as a control
